Data: article PMC10120734

Target: free UbcH8 (Ube2L6), GST tag removed (human)
Assay: SAXS

stoichiometry N: 2
Substance: free UbcH8 (Ube2L6), GST tag removed (enzyme)
